According to article PMC5907831 (Journal of Molecular Cell Biology, 2017):
Read-outs that look alike come from different tables or passages of the source.

B1: SRP72^1–163 (human SRP72 N-terminal TPR domain, SRP68-binding domain) (domain or fragment, UniProt O76094 1-163, looked up)
chain: MASGGSGGVSVPALWSEVNRYGQNGDFTRALKTVNKILQINKDDVTALHCKVVCLIQNGSFKEALNVINTHTKVLANNSLSFEKAYCEYRLNRIENALKTIESANQQTDKLKELYGQVLYRLERYDECLAVYRDLVRNSQDDYDEERKTNLSAVVAAQSNWEK

Legend:
[1] = Stability/solubility of SRP68 fragments and of SRP72 without cap; type: physicochemical; settings: preliminary experiments
AUC = target: the molecule itself; test: AUC
SEC = target: the molecule itself; test: SEC
[2] = target: T1, SRP72 V136A/R137A double mutant (human, UniProt O76094 1-163, V136A | R137A); test: pull-down
T1 sequence (looked up): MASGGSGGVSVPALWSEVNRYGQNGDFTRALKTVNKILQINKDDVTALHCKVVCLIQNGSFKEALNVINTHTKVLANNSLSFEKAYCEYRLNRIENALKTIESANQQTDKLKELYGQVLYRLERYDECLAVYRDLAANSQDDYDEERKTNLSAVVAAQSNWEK

[3] = target: B1; test: MST
[4] = Size-exclusion chromatography; type: physicochemical; settings: Superdex 75 10/300 GL; 20 mM Tris-HCl pH 8.0, 500 mM NaCl
[5] = ref Iakhiaeva et al., 2009, cited from earlier work
SRP68 = test: Binding ability of SRP72 mutants with Flag-tagged SRP68 from HCT116 cell lysate; type: cell-based, human; settings: HCT116 cells
SRP72 = test: Binding ability of Flag-tagged SRP68 mutants from HCT116 cell lysate; type: cell-based, human; settings: HCT116 cells; Flag-tagged SRP68 mutant from cell lysate

Q: For “570–605: C-terminal SRP68 fragment from previous study (KQANLVHFPPGFQPIPCKPLFFDLALNHVAFPPLED; UniProt Q9UHB9 570-605, looked up, fragment) [reference compound]”, which “degradation / solubility of fragment” value [1] is on record?
A: Its value is “either prone to degradation or not soluble”.

Q: What does the source list for B1?
A: stoichiometry N (AUC): 4; stoichiometry N (SEC): 2

Q: What does the source list for PLFFDLALNHVAFPPLEDKLEQK (peptide, UniProt Q9UHB9 588-610, looked up) [GST-tagged SRP68 residues 588−610 (23-residue peptide of SRP68)]?
A: binding result [2]: binds; Kd [3]: 730 ± 200 nM

B2: apo-SRP72: human SRP72 N-terminal TPR domain, residues 1–163, apo form (protein)
chain: MASGGSGGVSVPALWSEVNRYGQNGDFTRALKTVNKILQINKDDVTALHCKVVCLIQNGSFKEALNVINTHTKVLANNSLSFEKAYCEYRLNRIENALKTIESANQQTDKLKELYGQVLYRLERYDECLAVYRDLVRNSQDDYDEERKTNLSAVVAAQSNWEK
modifications: left off: His6, N-terminal, cleaved
Q: Which “oligomeric state in solution (SEC)” value [4] does the source give for B2 here?
A: The value was “mainly as a dimer in solution”.

B3: Y132A/R133A: double mutant of SRP72 in helix α8 (protein)
chain: MASGGSGGVSVPALWSEVNRYGQNGDFTRALKTVNKILQINKDDVTALHCKVVCLIQNGSFKEALNVINTHTKVLANNSLSFEKAYCEYRLNRIENALKTIESANQQTDKLKELYGQVLYRLERYDECLAVAADLVRNSQDDYDEERKTNLSAVVAAQSNWEK
modifications: left off: His6, N-terminal, state not stated
Q: Which “oligomeric state in solution (SEC)” value [4] does the source give for B3 here?
A: The value was “eluted as monomers”.

B4: V136A/R137A: monomeric double mutant of SRP72 in helix α8 (protein)
chain: MASGGSGGVSVPALWSEVNRYGQNGDFTRALKTVNKILQINKDDVTALHCKVVCLIQNGSFKEALNVINTHTKVLANNSLSFEKAYCEYRLNRIENALKTIESANQQTDKLKELYGQVLYRLERYDECLAVYRDLAANSQDDYDEERKTNLSAVVAAQSNWEK
modifications: left off: His6, N-terminal, state not stated
Q: With B4 as the molecule, how does the “oligomeric state in solution (SEC)” value [4] read?
A: The value was “eluted as monomers”.

B5: residues 530–620: C-terminal SRP68 fragment from previous study (protein, UniProt Q9UHB9 530-620, looked up, fragment)
chain: AAILDANDAHQTETSSSQVKDNKPLVERFETFCLDPSLVTKQANLVHFPPGFQPIPCKPLFFDLALNHVAFPPLEDKLEQKTKSGLTGYIK
Q: Which “degradation / solubility of fragment” value [1] does the source give for B5 here?
A: Its value is “either prone to degradation or not soluble”.

B6: SRP68/72 complex: heterodimer of SRP68 and SRP72 (protein, UniProt Q9UHB9 1-627; O76094 2-671, looked up)
Signal recognition particle … 1: MAAEKQVPGGGGGGGSGGGGGSGGGGSGGGRGAGGEENKENERPSAGSKANKEFGDSLSLEILQIIKESQQQHGLRHGDFQRYRGYCSRRQRRLRKTLNFKMGNRHKFTGKKVTEELLTDNRYLLLVLMDAERAWSYAMQLKQEANTEPRKRFHLLSRLRKAVKHAEELERLCESNRVDAKTKLEAQAYTAYLSGMLRFEHQEWKAAIEAFNKCKTIYEKLASAFTEEQAVLYNQRVEEISPNIRYCAYNIGDQSAINELMQMRLRSGGTEGLLAEKLEALITQTRAKQAATMSEVEWRGRTVPVKIDKVRIFLLGLADNEAAIVQAESEETKERLFESMLSECRDAIQVVREELKPDQKQRDYILEGEPGKVSNLQYLHSYLTYIKLSTAIKRNENMAKGLQRALLQQQPEDDSKRSPRPQDLIRLYDIILQNLVELLQLPGLEEDKAFQKEIGLKTLVFKAYRCFFIAQSYVLVKKWSEALVLYDRVLKYANEVNSDAGAFKNSLKDLPDVQELITQVRSEKCSLQAAAILDANDAHQTETSSSQVKDNKPLVERFETFCLDPSLVTKQANLVHFPPGFQPIPCKPLFFDLALNHVAFPPLEDKLEQKTKSGLTGYIKGIFGFRS
Signal recognition particle … 2: ASGGSGGVSVPALWSEVNRYGQNGDFTRALKTVNKILQINKDDVTALHCKVVCLIQNGSFKEALNVINTHTKVLANNSLSFEKAYCEYRLNRIENALKTIESANQQTDKLKELYGQVLYRLERYDECLAVYRDLVRNSQDDYDEERKTNLSAVVAAQSNWEKVVPENLGLQEGTHELCYNTACALIGQGQLNQAMKILQKAEDLCRRSLSEDTDGTEEDPQAELAIIHGQMAYILQLQGRTEEALQLYNQIIKLKPTDVGLLAVIANNIITINKDQNVFDSKKKVKLTNAEGVEFKLSKKQLQAIEFNKALLAMYTNQAEQCRKISASLQSQSPEHLLPVLIQAAQLCREKQHTKAIELLQEFSDQHPENAAEIKLTMAQLKISQGNISKACLILRSIEELKHKPGMVSALVTMYSHEEDIDSAIEVFTQAIQWYQNHQPKSPAHLSLIREAANFKLKYGRKKEAISDLQQLWKQNPKDIHTLAQLISAYSLVDPEKAKALSKHLPSSDSMSLKVDVEALENSAGATYIRKKGGKVTGDSQPKEQGQGDLKKKKKKKKGKLPKNYDPKVTPDPERWLPMRERSYYRGRKKGKKKDQIGKGTQGATAGASSELDASKTVSSPPTSPRPGSAATVSASTSNIIPPRHQKPAGAPATKKKQQQKKKKGGKGGW
Q: Which complex stability ([5]; 1 M NaCl) does the source give for B6 here?
A: The complex stability was “remains stable”.

Q: And the complex stability ([5]; 2 M urea)?
A: The complex stability was “stability in 2 M urea”.

B7: SRP72 V53I: cancer-associated SRP72 mutant (protein, UniProt O76094 2-671, looked up, variant V53I)
Signal recognition particle …: ASGGSGGVSVPALWSEVNRYGQNGDFTRALKTVNKILQINKDDVTALHCKVICLIQNGSFKEALNVINTHTKVLANNSLSFEKAYCEYRLNRIENALKTIESANQQTDKLKELYGQVLYRLERYDECLAVYRDLVRNSQDDYDEERKTNLSAVVAAQSNWEKVVPENLGLQEGTHELCYNTACALIGQGQLNQAMKILQKAEDLCRRSLSEDTDGTEEDPQAELAIIHGQMAYILQLQGRTEEALQLYNQIIKLKPTDVGLLAVIANNIITINKDQNVFDSKKKVKLTNAEGVEFKLSKKQLQAIEFNKALLAMYTNQAEQCRKISASLQSQSPEHLLPVLIQAAQLCREKQHTKAIELLQEFSDQHPENAAEIKLTMAQLKISQGNISKACLILRSIEELKHKPGMVSALVTMYSHEEDIDSAIEVFTQAIQWYQNHQPKSPAHLSLIREAANFKLKYGRKKEAISDLQQLWKQNPKDIHTLAQLISAYSLVDPEKAKALSKHLPSSDSMSLKVDVEALENSAGATYIRKKGGKVTGDSQPKEQGQGDLKKKKKKKKGKLPKNYDPKVTPDPERWLPMRERSYYRGRKKGKKKDQIGKGTQGATAGASSELDASKTVSSPPTSPRPGSAATVSASTSNIIPPRHQKPAGAPATKKKQQQKKKKGGKGGW
Q: With B7 as the molecule, how does the “binding ability compared with wild-type (HCT116)” value (SRP68) read?
A: The value was “severely compromised or abolished the binding ability”.

B8: SRP72 Y86C: cancer-associated SRP72 mutant (protein, UniProt O76094 2-671, looked up, variant Y86C)
Signal recognition particle …: ASGGSGGVSVPALWSEVNRYGQNGDFTRALKTVNKILQINKDDVTALHCKVVCLIQNGSFKEALNVINTHTKVLANNSLSFEKACCEYRLNRIENALKTIESANQQTDKLKELYGQVLYRLERYDECLAVYRDLVRNSQDDYDEERKTNLSAVVAAQSNWEKVVPENLGLQEGTHELCYNTACALIGQGQLNQAMKILQKAEDLCRRSLSEDTDGTEEDPQAELAIIHGQMAYILQLQGRTEEALQLYNQIIKLKPTDVGLLAVIANNIITINKDQNVFDSKKKVKLTNAEGVEFKLSKKQLQAIEFNKALLAMYTNQAEQCRKISASLQSQSPEHLLPVLIQAAQLCREKQHTKAIELLQEFSDQHPENAAEIKLTMAQLKISQGNISKACLILRSIEELKHKPGMVSALVTMYSHEEDIDSAIEVFTQAIQWYQNHQPKSPAHLSLIREAANFKLKYGRKKEAISDLQQLWKQNPKDIHTLAQLISAYSLVDPEKAKALSKHLPSSDSMSLKVDVEALENSAGATYIRKKGGKVTGDSQPKEQGQGDLKKKKKKKKGKLPKNYDPKVTPDPERWLPMRERSYYRGRKKGKKKDQIGKGTQGATAGASSELDASKTVSSPPTSPRPGSAATVSASTSNIIPPRHQKPAGAPATKKKQQQKKKKGGKGGW
Q: For B8, which “binding ability compared with wild-type (HCT116)” value (SRP68) is on record?
A: Its value is “severely compromised or abolished the binding ability”.

B9: SRP68 F590L: cancer-associated SRP68 mutant (protein, UniProt Q9UHB9 1-627, looked up, variant F590L)
Signal recognition particle …: MAAEKQVPGGGGGGGSGGGGGSGGGGSGGGRGAGGEENKENERPSAGSKANKEFGDSLSLEILQIIKESQQQHGLRHGDFQRYRGYCSRRQRRLRKTLNFKMGNRHKFTGKKVTEELLTDNRYLLLVLMDAERAWSYAMQLKQEANTEPRKRFHLLSRLRKAVKHAEELERLCESNRVDAKTKLEAQAYTAYLSGMLRFEHQEWKAAIEAFNKCKTIYEKLASAFTEEQAVLYNQRVEEISPNIRYCAYNIGDQSAINELMQMRLRSGGTEGLLAEKLEALITQTRAKQAATMSEVEWRGRTVPVKIDKVRIFLLGLADNEAAIVQAESEETKERLFESMLSECRDAIQVVREELKPDQKQRDYILEGEPGKVSNLQYLHSYLTYIKLSTAIKRNENMAKGLQRALLQQQPEDDSKRSPRPQDLIRLYDIILQNLVELLQLPGLEEDKAFQKEIGLKTLVFKAYRCFFIAQSYVLVKKWSEALVLYDRVLKYANEVNSDAGAFKNSLKDLPDVQELITQVRSEKCSLQAAAILDANDAHQTETSSSQVKDNKPLVERFETFCLDPSLVTKQANLVHFPPGFQPIPCKPLLFDLALNHVAFPPLEDKLEQKTKSGLTGYIKGIFGFRS
Q: For B9, which “binding ability compared with wild-type (HCT116)” value (SRP72) is on record?
A: The value was “severely compromised or abolished the binding ability”.
